PMC9271190
Where two headings read alike, the source gives them in different places.

Columns and labels:
[1] = target: T1, HERV-K reverse transcriptase (RT) (Human endogenous retrovirus K (Homo …, UniProt V9H0F6 1-596)); test: X-ray crystallography
T1 sequence: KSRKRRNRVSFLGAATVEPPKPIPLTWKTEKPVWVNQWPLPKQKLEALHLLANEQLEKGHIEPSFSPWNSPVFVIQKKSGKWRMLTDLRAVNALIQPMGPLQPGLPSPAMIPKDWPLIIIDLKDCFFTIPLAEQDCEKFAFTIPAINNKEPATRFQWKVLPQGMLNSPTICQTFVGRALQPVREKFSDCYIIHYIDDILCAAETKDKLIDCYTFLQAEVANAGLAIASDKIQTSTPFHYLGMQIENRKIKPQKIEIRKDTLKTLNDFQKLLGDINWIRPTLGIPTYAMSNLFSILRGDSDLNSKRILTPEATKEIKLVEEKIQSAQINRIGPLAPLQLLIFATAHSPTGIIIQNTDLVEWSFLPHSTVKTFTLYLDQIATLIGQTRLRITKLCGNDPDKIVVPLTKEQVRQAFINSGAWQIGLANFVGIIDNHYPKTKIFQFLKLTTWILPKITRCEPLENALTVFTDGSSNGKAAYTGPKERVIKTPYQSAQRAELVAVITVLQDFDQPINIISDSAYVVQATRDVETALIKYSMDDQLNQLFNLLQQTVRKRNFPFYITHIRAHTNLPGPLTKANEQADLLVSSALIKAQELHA

[2] = target: T1, HERV-K reverse transcriptase (RT); test: X-ray crystallography; remark: listed apart in the source

Binder | binding result [1] | binding result [2]
U5-PBS DNA template/primer, unextended (primer ends in G) (dsDNA) DNA 1: GGGACCTGAAAGCGAAAGGGAAAC DNA 2: GTTTCCCTTTCGCTTTCAGG | binds | –
U5-PBS DNA template/primer extended by ddT (dsDNA, primer 3'-terminal 2',3'-dideoxy-T (incorporated from ddTTP)) DNA 1: GGGACCTGAAAGCGAAAGGGAAAC DNA 2: GTTTCCCTTTCGCTTTCAGGT | – | binds
